From patent publication US7067277B1, “Chimeric G proteins and uses thereof” (H. Lundbeck A/S, priority 1999, dated 2006)

Assays:
Format in all cases: cell-based
h GALR2 = molecular target: T1, h GALR2 (Homo sapiens, UniProt O43603); assay: Calcium mobilization (FLIPR, Fluo-3) in transfected COS-7 cells; details: h GALR2 + chimera in COS-7; agonist GAL, max 10 μM
T1 construct: expressed in transfected cells; host or cells: COS-7
T1 sequence (O43603 1-387): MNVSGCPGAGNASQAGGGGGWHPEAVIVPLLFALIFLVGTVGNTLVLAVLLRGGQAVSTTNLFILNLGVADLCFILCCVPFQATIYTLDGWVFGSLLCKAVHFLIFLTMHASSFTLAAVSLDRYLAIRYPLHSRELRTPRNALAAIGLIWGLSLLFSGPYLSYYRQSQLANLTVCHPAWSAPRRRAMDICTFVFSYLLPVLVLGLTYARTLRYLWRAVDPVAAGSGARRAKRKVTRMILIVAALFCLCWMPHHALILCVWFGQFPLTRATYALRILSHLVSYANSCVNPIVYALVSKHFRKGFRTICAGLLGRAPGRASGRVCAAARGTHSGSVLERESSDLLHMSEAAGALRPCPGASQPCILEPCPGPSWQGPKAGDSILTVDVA
Procedure, shortened: (§1)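 Assay buffer was HBSS with 20 mM HEPES (pH 7.4), 0.1% BSA and 2.5 mM probenecid, and cells were loaded with 4 μM Fluo-3. Transfected COS-7 cells carried receptor and chimeric G protein cDNA at 1:1 or 8:1:1 ratios. Peak fluorescence change gave Hill-fitted curves.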

h 5HT7 = h 5HT7 (Homo sapiens, UniProt P34969); assay: as above; details: h 5HT7 + chimera in COS-7; agonist 5HT, max 100 μM
Procedure, shortened: as §1

h D5 = h D5 (Homo sapiens, UniProt P21918); assay: as above; details: h D5 + chimera in COS-7; agonist DA, max 100 μM
Procedure, shortened: as §1

r Y4 = r Y4 (Rattus norvegicus, UniProt Q63447); assay: as above; details: r Y4 + chimera in COS-7; agonist PP, max 10 μM
Procedure, shortened: as §1

r GALR1 = molecular target: T2, r GALR1 (Rattus norvegicus, UniProt Q62805); assay: as above; details: r GALR1 + chimera in COS-7; agonist GAL, max 10 μM
T2 sequence (Q62805 1-346): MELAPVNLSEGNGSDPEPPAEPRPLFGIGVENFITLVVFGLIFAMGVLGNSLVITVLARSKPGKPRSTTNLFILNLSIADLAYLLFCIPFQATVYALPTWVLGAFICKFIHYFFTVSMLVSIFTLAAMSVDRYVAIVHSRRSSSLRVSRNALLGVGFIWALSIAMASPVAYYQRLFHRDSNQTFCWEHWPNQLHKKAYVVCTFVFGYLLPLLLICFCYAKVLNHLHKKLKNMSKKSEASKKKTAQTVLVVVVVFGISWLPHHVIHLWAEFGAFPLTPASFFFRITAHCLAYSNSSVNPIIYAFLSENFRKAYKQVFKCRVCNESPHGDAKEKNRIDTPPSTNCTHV
Procedure, shortened: as §1

h α2B adr = molecular target: T3, h α2B adr (Homo sapiens, UniProt P18089); assay: as above; details: h α2B adr + chimera in COS-7; agonist NE, max 100 μM
T3 construct: expressed in transfected cells; host or cells: COS-7
T3 sequence (P18089 1-450): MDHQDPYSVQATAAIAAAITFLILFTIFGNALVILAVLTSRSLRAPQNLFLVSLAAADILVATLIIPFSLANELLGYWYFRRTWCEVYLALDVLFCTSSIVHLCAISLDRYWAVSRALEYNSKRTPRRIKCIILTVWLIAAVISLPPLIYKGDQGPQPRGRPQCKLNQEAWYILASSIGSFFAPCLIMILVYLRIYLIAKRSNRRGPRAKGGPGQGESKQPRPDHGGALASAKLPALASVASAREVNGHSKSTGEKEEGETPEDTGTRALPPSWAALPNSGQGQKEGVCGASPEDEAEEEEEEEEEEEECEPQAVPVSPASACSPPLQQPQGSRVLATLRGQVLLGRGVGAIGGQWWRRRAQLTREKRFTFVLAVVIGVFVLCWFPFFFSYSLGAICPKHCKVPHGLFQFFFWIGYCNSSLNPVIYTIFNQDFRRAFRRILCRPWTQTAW
Procedure, shortened: as §1

[1] = tested on: panel of 36 different GPCRs, including Gαi/i-, Gαs-, and Gαq-coupling receptors; assay: Detection rate in COS-7 calcium mobilization over a GPCR panel; details: COS-7, single chimera co-transfected with each GPCR
Method: COS-7 cells were cultured in 225 cm^2 flasks in Dulbecco's Modified Eagle Medium (DMEM) with supplements (10% bovine calf serum, 4 mM glutamine, 100 units/ml penicillin and 100 μg/ml streptomycin) at 37° C., 5% CO2. Stock plates of COS-7 cells were trypsinized and split 1:6 every 3–4 days.
GPCR and chimeric G protein cDNAs were transiently transfected into COS-7 cells in 150 cm^2 flasks by the DEAE-dextran method (Cullen, 1987), using a total of 20 μg of DNA/˜7×10^6 cells. For evaluating the function of a single chimeric G protein, the standard cDNA transfection ratio was 1:1 (10 μg GPCR cDNA and 10 μg chimeric G protein cDNA). […]
Twenty four hours after transient transfection, COS-7 cells were seeded into 96-well black wall microtiter plates coated with poly-D-lysine for assay the following day. […] Basal fluorescence was monitored in a fluorometric imaging plate reader (FLIPR™, Molecular Devices) with an excitation wavelength of 488 nm and an emission range of 500 to 560 nm. Laser excitation energy was adjusted so that basal fluorescence readings were approximately 10,000 relative fluorescent units. Cells were stimulated with agonists diluted in assay buffer (50 μl), and relative fluorescent units were measured at defined intervals (exposure=0.4 sec) over a 3 min period at room temperature. Maximum change in fluorescence was calculated for each well. […]

Sequence of h 5HT7 (P34969 whole entry): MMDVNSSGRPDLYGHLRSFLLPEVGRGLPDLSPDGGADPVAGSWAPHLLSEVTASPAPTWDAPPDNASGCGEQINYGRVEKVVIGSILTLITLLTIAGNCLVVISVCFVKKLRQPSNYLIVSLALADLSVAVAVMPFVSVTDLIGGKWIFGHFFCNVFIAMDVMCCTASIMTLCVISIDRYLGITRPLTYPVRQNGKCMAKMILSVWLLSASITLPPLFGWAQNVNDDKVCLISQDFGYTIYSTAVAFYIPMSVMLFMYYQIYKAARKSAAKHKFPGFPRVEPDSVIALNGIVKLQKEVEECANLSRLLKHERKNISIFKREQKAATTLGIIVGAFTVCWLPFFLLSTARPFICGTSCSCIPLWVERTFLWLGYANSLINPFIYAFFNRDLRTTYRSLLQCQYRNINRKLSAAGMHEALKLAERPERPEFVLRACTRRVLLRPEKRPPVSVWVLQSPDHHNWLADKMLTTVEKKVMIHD
Sequence of r Y4 (Q63447 whole entry): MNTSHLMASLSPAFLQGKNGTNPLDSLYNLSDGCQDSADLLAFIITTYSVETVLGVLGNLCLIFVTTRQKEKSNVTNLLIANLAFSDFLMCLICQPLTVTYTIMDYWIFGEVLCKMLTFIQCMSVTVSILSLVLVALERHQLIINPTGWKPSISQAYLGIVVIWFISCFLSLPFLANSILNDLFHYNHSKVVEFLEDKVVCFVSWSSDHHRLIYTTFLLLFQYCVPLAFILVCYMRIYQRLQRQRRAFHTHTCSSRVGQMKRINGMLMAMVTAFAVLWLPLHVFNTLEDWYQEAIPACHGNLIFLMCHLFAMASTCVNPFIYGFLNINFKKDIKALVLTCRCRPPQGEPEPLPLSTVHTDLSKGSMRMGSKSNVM
Sequence of h D5 (P21918 whole entry): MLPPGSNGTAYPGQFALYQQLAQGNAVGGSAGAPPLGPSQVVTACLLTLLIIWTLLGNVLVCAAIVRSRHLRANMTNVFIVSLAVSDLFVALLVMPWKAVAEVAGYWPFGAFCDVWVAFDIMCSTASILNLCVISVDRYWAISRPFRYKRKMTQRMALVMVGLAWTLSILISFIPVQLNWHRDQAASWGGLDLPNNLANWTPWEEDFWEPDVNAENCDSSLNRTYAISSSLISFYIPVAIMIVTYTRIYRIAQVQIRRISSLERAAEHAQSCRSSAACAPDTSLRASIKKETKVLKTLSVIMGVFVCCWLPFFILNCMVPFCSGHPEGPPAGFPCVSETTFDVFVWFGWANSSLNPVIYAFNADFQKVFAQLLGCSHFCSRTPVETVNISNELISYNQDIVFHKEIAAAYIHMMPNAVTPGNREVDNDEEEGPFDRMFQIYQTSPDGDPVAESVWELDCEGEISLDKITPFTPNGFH

Molecule	MAXIMAL SIGNAL (FLUORESCENCE UNITS) (h GALR2) [fluorescence units]	MAXIMAL SIGNAL (FLUORESCENCE UNITS) (h 5HT7) [fluorescence units]	MAXIMAL SIGNAL (FLUORESCENCE UNITS) (h D5) [fluorescence units]	MAXIMAL SIGNAL (FLUORESCENCE UNITS) (r Y4) [fluorescence units]	MAXIMAL SIGNAL (FLUORESCENCE UNITS) (r GALR1) [fluorescence units]	MAXIMAL SIGNAL (FLUORESCENCE UNITS) (h α2B adr) [fluorescence units]	receptors generating positive signals (>500 fluorescence units) / receptors tested [1]
cGαq/z5: chimeric Gα subunit: C-terminal final 5 amino acids of C. elegans Gαq replaced with those of hGαz (SEQ ID NO: 1) (protein, C. elegans) MACCLSEEAREQKRINQEIEKQLQRDKRNARRELKLLLLGTGESGKSTFIKQMRIIHGQGYSEEDKRAHIRLVYQNVFMAIQSMIRAMDTLDIKFGNESEELQEKAAVVREVDFESVTSFEEPYVSYIKELWEDSGIQECYDRRREYQLTDSAKYYLSDLRRLAVPDYLPTEQDILRVRVPTTGIIEYPFDLEQIIFRMVDVGGQRSERRKWIHCFENVTSIMFLVALSEYDQVLVECDNENRMEESKALFRTIITYPWFTNSSVILFLNKKDLLEEKILYSHLADYFPEYDGPPRDPIAAREFILKMFVDLNPDADKIIYSHFTCATDTENIRFVFAAVKDTILQHNLKYIGLC	5470	166	657	3662	3086	4983	28/36
cGαq/z9: C. elegans Gαq with Gαz portion of the C-terminal tail extended to 9 amino acids (SEQ ID NO: 2) (protein, C. elegans) MACCLSEEAREQKRINQEIEKQLQRDKRNARRELKLLLLGTGESGKSTFIKQMRIIHGQGYSEEDKRAHIRLVYQNVFMAIQSMIRAMDTLDIKFGNESEELQEKAAVVREVDFESVTSFEEPYVSYIKELWEDSGIQECYDRRREYQLTDSAKYYLSDLRRLAVPDYLPTEQDILRVRVPTTGIIEYPFDLEQIIFRMVDVGGQRSERRKWIHCFENVTSIMFLVALSEYDQVLVECDNENRMEESKALFRTIITYPWFTNSSVILFLNKKDLLEEKILYSHLADYFPEYDGPPRDPIAAREFILKMFVDLNPDADKIIYSHFTCATDTENIRFVFAAVKDTILQNNLKYIGLC	4899	129	797	2583	5947	5138	29/36
